Test results from patent publication US20260242839A1, “GLYCOSIDE PRODUCT BIOSYNTHESIS AND RECOVERY” (Manus Bio Inc., priority 2023, published 2026).

B1: SEQ ID NO: 71: AtUGT73C3 (Arabidopsis thaliana) (protein, listed as Arabidopsis thaliana)
chain: MATEKTHQFHPSLHFVLFPFMAQGHMIPMIDIARLLAQRGVTITIVTTPHNAARFKNVLNRAIESGLAINILHVKFPYQEFGLPEGKENIDSLDSTELMVPFFKAVNLLEDPVMKLMEEMKPRPSCLISDWCLPYTSIIAKNFNIPKIVFHGMGCFNLLCMHVLRRNLEILENVKSDEEYFLVPSFPDRVEFTKLQLPVKANASGDWKEIMDEMVKAEYTSYGVIVNTFQELEPPYVKDYKEAMDGKVWSIGPVSLCNKAGADKAERGSKAAIDQDECLQWLDSKEEGSVLYVCLGSICNLPLSQLKELGLGLEESRRSFIWVIRGSEKYKELFEWMLESGFEERIKERGLLIKGWAPQVLILSHPSVGGFLTHCGWNSTLEGITSGIPLITWPLFGDQFCNQKLVVQVLKAGVSAGVEEVMKWGEEDKIGVLVDKEGVKKAVEELMGDSDDAKERRRRVKELGELAHKAVEKGGSSHSNITLLLQDIMQLAQFKN
B2: SEQ ID NO: 73: HvUGT_B3 (Hordeum vulgare subsp. Vulgare) (protein)
chain: MAEANDGGKMHVVMLPWLAFGHVLPFTEFAKRVARQGHRVTLLSAPRNTRRLIDIPPGLAGLIRVVHVPLPRVDGLPEHAEATIDLPSDHLRPCLRRAFDAAFERELSRLLQEEAKPDWVLVDYASYWAPTAAARHGVPCAFLSLFGAAALSFFGTPETLLGIGRHAKTEPAHLTVVPEYVPFPTTVAYRGYEARELFEPGMVPDDSGVSEGYRFAKTIEGCQLVGIRSSSEFEPEWLRLLGELYRKPVIPVGLFPPAPQDDVAGHEATLRWLDGQAPSSVVYAAFGSEVKLTGAQLQRIALGLEASGLPFIWAFRAPTSTETGAASGGLPEGFEERLAGRGVVCRGWVPQVKFLAHASVGGFLTHAGWNSIAEGLAHGVRLVLLPLVFEQGLNARNIVDKNIGVEVARDEQDGSFAAGDIAAALRRVMVEDEGEGFGAKVKELAKVFGDDEVNDQCVREFLMHLSDHSKKNQGQD
modifications: Hordeum vulgare
B3: SEQ ID NO: 33: SgUGT720-269-1 (Siraitia grosvenorii) (protein)
chain: MEDRNAMDMSRIKYRPQPLRPASMVQPRVLLFPFPALGHVKPFLSLAELLSDAGIDVVFLSTEYNHRRISNTEALASRFPTLHFETIPDGLPPNESRALADGPLYFSMREGTKPRFRQLIQSLNDGRWPITCIITDIMLSSPIEVAEEFGIPVIAFCPCSARYLSIHFFIPKLVEEGQIPYADDDPIGEIQGVPLFEGLLRRNHLPGSWSDKSADISFSHGLINQTLAAGRASALILNTFDELEAPFLTHLSSIFNKIYTIGPLHALSKSRLGDSSSSASALSGFWKEDRACMSWLDCQPPRSVVFVSFGSTMKMKADELREFWYGLVSSGKPFLCVLRSDVVSGGEAAELIEQMAEEEGAGGKLGMVVEWAAQEKVLSHPAVGGFLTHCGWNSTVESIAAGVPMMCWPILGDQPSNATWIDRVWKIGVERNNREWDRLTVEKMVRALMEGQKRVEIQRSMEKLSKLANEKVVRGINLHPTISLKKDTPTTSEHPRHEFENMRGMNYEMLVGNAIKSPTLTKK
B4: SEQ ID NO: 84: UGT85C1 (Stevia rebaudiana) (protein, listed as Stevia rebaudiana)
chain: MDQMAKIDEKKPHVVFIPFPAQSHIKCMLKLARILHQKGLYITFINTDTNHERLVASGGTQWLENAPGFWFKTVPDGFGSAKDDGVKPTDALRELMDYLKTNFFDLFLDLVLKLEVPATCIICDGCMTFANTIRAAEKLNIPVILFWTMAACGFMAFYQAKVLKEKEIVPVKDETYLTNGYLDMEIDWIPGMKRIRLRDLPEFILATKQNYFAFEFLFETAQLADKVSHMIIHTFEELEASLVSEIKSIFPNVYTIGPLQLLLNKITQKETNNDSYSLWKEEPECVEWLNSKEPNSVVYVNFGSLAVMSLQDLVEFGWGLVNSNHYFLWIIRANLIDGKPAVMPQELKEAMNEKGFVGSWCSQEEVLNHPAVGGFLTHCGWGSIIESLSAGVPMLGWPSIGDQRANCRQMCKEWEVGMEIGKNVKRDEVEKLVRMLMEGLEGERMRKKALEWKKSATLATCCNGSSSLDVEKLANEIKKLSRN

Legend:
[1] = maximum solubility of RebM in fermentation broth; type: physicochemical
Protocol: Fermentation broth was held at a constant temperature of 70° C. and subjected to different treatments as described in Table 7. RebM was slowly added with constant stirring to determine the maximum solubility of RebM.

[2] = cited from earlier work
Mog. IA = test: bioconversion of Mog. IA into Mog. IIE; type: cell-based, E. coli; settings: 96-well plates, 37° C., 48 hours; FIG. 18A
Protocol: (§1) IE (FIG. 18B) into Mog. IIE. In the experiment, engineered E. coli chassis strains expressing UGT enzymes, SEQ ID NO: 84, SEQ ID NO: 71, or SEQ ID NO: 33 were incubated in fermentation media containing Mog. IA (FIG. 18A) or Mog. IE (FIG. 18B) in 96-well plates at 37° C. Product formation was examined after 48 hours. Products were measured on LC-MS/MS with authentic standards. The values of Mog. IIE levels in excess of the empty vector control were calculated. […] IE into Mog. IIE.

mogrol [3] = test: bioconversion of mogrol into mogroside intermediates; type: cell-based, E. coli; settings: 96-well plates, 48 hours, in excess of empty vector control; FIG. 17A
Protocol: The engineered bacterial strains described herein can be used for the glycosylation of a variety of substrates, including but not limited to terpenoid glycosides. In some aspects, the invention identifies UGT enzymes that are active on the mogrol or mogroside scaffolds. FIGS. 17A and B show the bioconversion of mogrol into mogroside intermediates. Engineered E. coli strains (chassis strain) expressing UGT enzymes were incubated in 96-well plates with mogrol. Product formation was examined after 48 hours. Reported values are those in excess of the empty vector control. Products were measured on LC-MS/MS with authentic standards. […] IE and/or Mog. IIE formed.

mogrol [4] = test: primary glycosylation at C3 and C24 hydroxyls of mogrol by cells expressing UGT enzymes; type: cell-based, E. coli; settings: mogrol fed; 37° C., 48 hrs; LCMS/MS
Protocol: Specifically, mogrol was fed to cells expressing various UGT enzymes. Reactions were incubated at 37° C. for 48 hrs. Products were quantified by LCMS/MS with authentic standards of each compound.

Mog. IE = test: bioconversion of Mog. IE into Mog. IIE; type: cell-based, E. coli; settings: 96-well plates, 37° C., 48 hours; FIG. 18B
Protocol: as §1

Mog. I-E = test: production of Mog. II-A2 from Mog. I-E; type: cell-based, E. coli; settings: 37° C., 48 hr; FIG. 20
Protocol: II-A2. Mog. I-E was fed in vitro. In the experiment, engineered E. coli strains (chassis strain) expressing UGT enzyme SEQ ID NO: 73 were incubated at 37° C. for 48 hr. Products were quantified by LC-MS/MS with authentic standards of each compound. […] IE to Mog. II-A2.

Mog. IIE or Mog. IE = test: branched glycosylation reactions by cells expressing UGT enzymes; type: cell-based, E. coli; settings: Mog. IIE or Mog. IE fed; 37° C., 48 hr; LC-MS/MS
Protocol: Mog. IIE or Mog. IE was fed to cells expressing various UGT enzymes. Reactions were incubated at 37° C. for 48 hr. Products were quantified by LC-MS/MS with authentic standards of each compound. “Indirect” evidence means that consumption of substrate was observed.

| Molecule | bioconversion of Mog.IA into Mog.IIE (Mog. IA) | product formation from mogrol (mogrol [3]) | C3 O-Glucosylation (mogrol [4]) | C24 O-Glucosylation (mogrol [4]) | bioconversion of Mog. IE into Mog. IIE (Mog. IE) | further results |
| --- | --- | --- | --- | --- | --- | --- |
| C=C1C[C@@]23CC[C@H]4[C@@](C)(CCC[C@@]4(C)C(=O)O[C@@H]4O[C@H](CO)[C@@H](O)[C@H](O[C@@H]5O[C@H](CO)[C@@H](O)[C@H](O)[C@H]5O)[C@H]4O[C@@H]4O[C@H](CO)[C@@H](O)[C@H](O)[C@H]4O)[C@@H]2CC[C@]1(O[C@@H]1O[C@H](CO)[C@@H](O)[C@H](O[C@@H]2O[C@H](CO)[C@@H](O)[C@H](O)[C@H]2O)[C@H]1O[C@@H]1O[C@H](CO)[C@@H](O)[C@H](O)[C@H]1O)C3 [RebM, rebaudioside M] | – | – | – | – | – | RebM solubility ([1]; pH 3.5, 70.8 ° C., no small molecule enhancer): 68.9 mg/mL; RebM solubility ([1]; pH 7, 70.8 ° C., Glycerol 0.5 wt %): 119.0 mg/mL; RebM solubility ([1]; pH 7, 70.8 ° C., no small molecule enhancer): 29.9 mg/mL; RebM solubility ([1]; pH 11.6, 70.8 ° C., 1,3-Propanediol 0.5 wt %): 151.3 mg/mL; RebM solubility ([1]; pH 11.6, 70.8 ° C., Glycerol 0.5 wt %): 151.3 mg/mL; times more potent than sucrose ([2]; estimated, Prakash et al. 2014): 200-350 times |
| C[C@H](CC[C@@H](O[C@@H]1O[C@H](CO[C@@H]2O[C@H](CO)[C@@H](O)[C@H](O)[C@H]2O)[C@@H](O)[C@H](O)[C@H]1O[C@@H]1O[C@H](CO)[C@@H](O)[C@H](O)[C@H]1O)C(C)(C)O)[C@H]1CC[C@@]2(C)[C@@H]3CC=C4[C@@H](CC[C@H](O[C@@H]5O[C@H](CO[C@@H]6O[C@H](CO)[C@@H](O)[C@H](O)[C@H]6O)[C@@H](O)[C@H](O)[C@H]5O)C4(C)C)[C@]3(C)[C@H](O)C[C@]12C [mogroside V] | – | – | – | – | – | sweetening capacity, times that of sucrose ([2]; Kasai et al. 1989): ~ 250 times |
| B1 | able to catalyze bioconversion of Mog.IA into Mog.IIE | largely produced Mog.IA from mogrol | Yes | Yes | able to catalyze the bioconversion of Mog. IE into Mog. IIE | – |
| B2 | – | – | – | – | – | bioconversion of Mog. IE to Mog. II-A2 (Mog. I-E): able to catalyze bioconversion of Mog. IE to Mog. II-A2; C3 1-2 (Mog. IIE or Mog. IE): No; C3 1-6 (Mog. IIE or Mog. IE): Yes; C24 1-2 (Mog. IIE or Mog. IE): No; C24 1-6 (Mog. IIE or Mog. IE): Yes |
| B3 | – | largely produced Mog.IA from mogrol | Yes | Yes | able to catalyze the bioconversion of Mog. IE into Mog. IIE | – |
| B4 | able to catalyze bioconversion of Mog.IA into Mog.IIE | – | Yes | Yes | able to catalyze the bioconversion of Mog. IE into Mog. IIE | – |
